Data: the supplement of paper PMC9170038

Test system: MS2 coat protein
Assay: apparent KD of MS2 coat protein; designed switch direction (-1 OFF switch, 1 ON switch): 1; higher = weaker reporter binding
How it was run: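 Apparent KD, taken as the median over clusters for each design, was obtained by curve-fitting normalised cluster fluorescence. Designed RNA switches had been transcribed on Illumina chips by stalled E. coli RNA polymerase and titrated with SNAP-549-labelled MS2 coat protein, doubling from 0.7 or 1.5 nM to 3 µM.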

[1] = input ligand: microRNA oligo, concentration not stated
[2] = Eterna round: R95, input ligand: FMN 200 uM
[3] = Eterna round: R95, input ligand: microRNA oligo, concentration not stated
[4] = Eterna round: R95, input ligand: none

## GCUGCAAGGGCAGGAUAUGGGUCCAAAGCGCAAGUGCGCUUUGGUACAUGAGGAUCACCCAUGUCCCAGAAGGGCCCAAACAGC [Bientierqu] (Eterna round: R96, puzzle: Same State NG 2)
Input ligand: FMN 200 uM
  apparent KD of MS2 coat protein: 0.0155 µM
[1]
  apparent KD of MS2 coat protein: 0.0872 µM
Input ligand: none
  apparent KD of MS2 coat protein: 0.121 µM

## AACAAAUACACAGGAUAUACAGCGGCAGCCACUGUAGAAGGGUGGGCGGGUUCCAACAUGAGGAUCACCCAUGUACCCAAUAAA [Gerace] (Eterna round: R96, puzzle: Same State NG 1)
Input ligand: FMN 200 uM
  apparent KD of MS2 coat protein: 0.161 µM
[1]
  apparent KD of MS2 coat protein: 0.234 µM
Input ligand: none
  apparent KD of MS2 coat protein: 0.699 µM

## AAUUAAGAUCUAGGAUAUCACGUCGAUUAGACGUGAGAAGGAGAUCAUAACAUGAGGAUCACCCAUGUAUUACAUGAAUUAAUU [SSNG1/6-B2] (Eterna round: R96, puzzle: Same State NG 1)
[1]
  apparent KD of MS2 coat protein: 0.0234 µM

## GUACAGAUUAUAGGAUAUCACGUCGAAUAGACGUGAGAAGGAUAAUCACACAUGAAUAUUAAUACAUGAGGAUCACCCAUGUAC [SSNG1/17-A1] (Eterna round: R96, puzzle: Same State NG 1)
Input ligand: FMN 200 uM
  apparent KD of MS2 coat protein: 0.0167 µM
[1]
  apparent KD of MS2 coat protein: 0.0129 µM
Input ligand: none
  apparent KD of MS2 coat protein: 0.0171 µM

## AUCCUACAUGAGGAUCACCCAUGUGACGCCUCAAUAGGAUAUGCGUGUGCCUUGGCGCAUGCAGAAGGAUUGGAGC [JL Aveso mod 4] (puzzle: Same State 1)
[2]
  apparent KD of MS2 coat protein: 0.0846 µM
[3]
  apparent KD of MS2 coat protein: 0.318 µM
[4]
  apparent KD of MS2 coat protein: 0.279 µM

## UGGUACAUGGGAGGAUAUCUCAUGGAGACAUGAGGAUCACCCAUGUAGUUGGGCCGGAAACGGUGAGAGAAGGCCCAUGUACCU [JL SSNG1 3.71] (Eterna round: R96, puzzle: Same State NG 2)
Input ligand: FMN 200 uM
  apparent KD of MS2 coat protein: 0.377 µM
[1]
  apparent KD of MS2 coat protein: 0.338 µM
Input ligand: none
  apparent KD of MS2 coat protein: 0.473 µM

## UUAAGCAGCGGGCAGGAUAUGUAUUAAAAUACAUGAGGAUCACCCAUGUGCAGGUGUAACACCUGACAGAAGGGCCAAUCGGUGC [Soteed - 9] (puzzle: Same State 2)
[2]
  apparent KD of MS2 coat protein: 0.0363 µM
[3]
  apparent KD of MS2 coat protein: 0.197 µM
[4]
  apparent KD of MS2 coat protein: 0.329 µM

## ACAAGCUUUUUGCUCAUCUUAUGUCCGAAACAUGAGGAUCACCCAUGUAUAGAUUAUGUGUUGUUUUUGAUACAAGA [JR_SHM208A_Sub064] (puzzle: Sensor for hsa-mir-208a)
[2]
  apparent KD of MS2 coat protein: 0.0321 µM
[3]
  apparent KD of MS2 coat protein: 0.0249 µM
[4]
  apparent KD of MS2 coat protein: 0.0331 µM

## AUACAUGAGGAUCACCCAUGUAAUUAAUUAACUAGUAAGAUCUAGGAUAUCAGCUCGAAUAGAGCUGAGAAGGAGAUCACAUGU [SSNG3/21-A1] (Eterna round: R96, puzzle: Same State NG 3)
[1]
  apparent KD of MS2 coat protein: 0.0312 µM

## UCUUGGUUUUUGCUCGUUUUUUGUGUUGAACAUGAGGAUCACCCAUGUAUUGUACGGUCCGGUUUAGUAGUGGUCCG [JMF 17] (puzzle: Sensor for hsa-mir-208a)
[2]
  apparent KD of MS2 coat protein: 0.0257 µM
[3]
  apparent KD of MS2 coat protein: 0.0166 µM
[4]
  apparent KD of MS2 coat protein: 0.0304 µM

## CUGCUACAUGAGGAUCACCCAUGUUGGAGUGAUGCAGGAUAUGUGUGACCAGAAGAUGAAACAGAAGGGCAAAGAA [JR_SS!_Sub004] (puzzle: Same State 1)
[2]
  apparent KD of MS2 coat protein: 0.0962 µM
[3]
  apparent KD of MS2 coat protein: 0.0757 µM
[4]
  apparent KD of MS2 coat protein: 0.101 µM

## ACAUGAGGAUCACCCAUGUAACACCUGAAAAUAAAACGAACACAGGAUAUCCCAGCAUGACGCCGGGAGAAGGGUGAUCGAAGA [Quorer] (Eterna round: R96, puzzle: Same State NG 3)
Input ligand: FMN 200 uM
  apparent KD of MS2 coat protein: 0.124 µM
[1]
  apparent KD of MS2 coat protein: 0.118 µM
Input ligand: none
  apparent KD of MS2 coat protein: 0.0528 µM

## UGGCUCAGACGAGGAUAUAUGUCUCGAGCUUCGGCUCGAGACAUGAGGAUCACCCAUGUAAUAACAUAGAAGGUGUCUGAGCCU [SSNG2/1-C3] (Eterna round: R96, puzzle: Same State NG 2)
Input ligand: FMN 200 uM
  apparent KD of MS2 coat protein: 0.0429 µM
[1]
  apparent KD of MS2 coat protein: 0.226 µM
Input ligand: none
  apparent KD of MS2 coat protein: 0.388 µM

## AGUCCAGCCAGAGCUGGACAAAAGCAUGUACAUGAGGAUCACCCAUGUUCAUGUACAAGCUUUUUGCAAGUCAAAAG [Mat - hsa-mir-208a - Mod of JL - 74] (puzzle: Sensor for hsa-mir-208a)
[2]
  apparent KD of MS2 coat protein: 0.503 µM
[3]
  apparent KD of MS2 coat protein: 0.0259 µM
[4]
  apparent KD of MS2 coat protein: 0.78 µM

## AAACCCAGUCUGUAGGAUAUGCACCUGCCGACAUGAGGAUCACCCAUGUACCCUAACAACAGCGUGCAGAAGGGCAGCAAUAAAA [Verilara] (puzzle: Same State 2)
[2]
  apparent KD of MS2 coat protein: 0.0192 µM
[3]
  apparent KD of MS2 coat protein: 0.0229 µM
[4]
  apparent KD of MS2 coat protein: 0.0263 µM

## UAUUUAAUCAUAGGAUAUAGUGUGUAAUUUGGACUAGAAGGAUGAAACAUGAGGAUCACCCAUGUGGUAAAUGGGAUACAUUCC [JR_SSNG1_Sub100] (Eterna round: R96, puzzle: Same State NG 1)
[1]
  apparent KD of MS2 coat protein: 0.0598 µM

## CCGGGUAAUGGAGGAUAUGGAGCCUUAUUGGCUCCAGAAGGUCAAUAACAUGAGGAUCACCCAUGUCCGGCGGUCAAUAGACCG [Eli NG1ss - 68] (Eterna round: R96, puzzle: Same State NG 1)
Input ligand: FMN 200 uM
  apparent KD of MS2 coat protein: 0.0875 µM
[1]
  apparent KD of MS2 coat protein: 0.202 µM
Input ligand: none
  apparent KD of MS2 coat protein: 0.775 µM

## GUCAGCGAUUGAGGAUAUCACGUCGAAUAGACGUGAGAAGGCGAUCAUAACAUGAGGAUCACCCAUGUAUUACAUGAAGCUGAC [SSNG1/5-A1] (Eterna round: R96, puzzle: Same State NG 1)
Input ligand: FMN 200 uM
  apparent KD of MS2 coat protein: 0.0152 µM
[1]
  apparent KD of MS2 coat protein: 0.0224 µM
Input ligand: none
  apparent KD of MS2 coat protein: 0.0291 µM

## AUAAGUUUGAUGCUCGUCUCUUCGUACAGACAUGAGGAUCACCCAUGUAGUCGGGAAGUAGCCCGGCCAGUAUGACC [Usraisqu] (Eterna round: R96, puzzle: Sensor for hsa-mir-208a)
Input ligand: FMN 200 uM
  apparent KD of MS2 coat protein: 0.285 µM
[1]
  apparent KD of MS2 coat protein: 0.0382 µM
Input ligand: none
  apparent KD of MS2 coat protein: 0.248 µM

## UUGAUUAGAAAUUAACAUGAGGAUCACCCAUGUAUUGGAUCAGAGGAUAUGCAUGUUUGAUAGUAGCAGAAGGCUGAUGGUGGA [JR_SSNG3_Sub027] (Eterna round: R96, puzzle: Same State NG 3)
Input ligand: FMN 200 uM
  apparent KD of MS2 coat protein: 0.0683 µM
[1]
  apparent KD of MS2 coat protein: 0.0442 µM
Input ligand: none
  apparent KD of MS2 coat protein: 0.0458 µM

## UUUCUACAUGAGGAUCACCCAUGUCAACAAAGUCGAGGAUAUGGGCAUAUUAUCUUAUUUCCAGAAGGCGAUUUCU [salish99_ss1_r3_092] (puzzle: Same State 1)
[3]
  apparent KD of MS2 coat protein: 0.101 µM

## GGUGGGUUGCUGCCGGCACAUGAGGAUCACCCAUGUUUUGGGAAGGAUAUGGUACCUUUUUGGUGCCAGAAGGUCCCGUUGGUG [salish99_SSNG3_r04_712 large U pivot] (Eterna round: R96, puzzle: Same State NG 3)
[1]
  apparent KD of MS2 coat protein: 0.35 µM

## AUUACUAACAUAGGAUAUCAUGCGAAAAUUGCGUGAGAAGGGUGGACGCUGUCAUUCUCGGAGGACAUGAGGAUCACCCAUGUC [SameState NG1 #71] (Eterna round: R96, puzzle: Same State NG 1)
Input ligand: FMN 200 uM
  apparent KD of MS2 coat protein: 0.118 µM
[1]
  apparent KD of MS2 coat protein: 0.103 µM
Input ligand: none
  apparent KD of MS2 coat protein: 0.0907 µM

## CUCAAAACAAGUUGCAGUGUUCGUCUUUAACAUGAGGAUCACCCAUGUAAUAACCCAGUGGAAGCGCUCGGGCCACC [Ineson] (puzzle: Sensor for hsa-mir-208a)
[2]
  apparent KD of MS2 coat protein: 0.0302 µM
[4]
  apparent KD of MS2 coat protein: 0.0285 µM

## CCGCUCUAUGGAGGAUAUGGGCCUGCCCGGGAUAACGGGCCUAAUACAUGAGGAUCACCCAUGUCCCAGAAGGCCGCUAGAGCC [Errexexe] (Eterna round: R96, puzzle: Same State NG 2)
Input ligand: FMN 200 uM
  apparent KD of MS2 coat protein: 0.12 µM
[1]
  apparent KD of MS2 coat protein: 0.348 µM
Input ligand: none
  apparent KD of MS2 coat protein: 0.471 µM

## AUUAUUAAUAUAGGAUAUGUAAAACAUGAGGAUCACCCAUGUGAUAUCGUGAGUAAGGAGAGAGAACAGAAGGAUAUUUUUUUU [JMF's solution 3] (Eterna round: R96, puzzle: Same State NG 2)
Input ligand: FMN 200 uM
  apparent KD of MS2 coat protein: 0.0406 µM
[1]
  apparent KD of MS2 coat protein: 0.0305 µM
Input ligand: none
  apparent KD of MS2 coat protein: 0.0433 µM

## AUUUUGAAUGCAGGAUAUGAUUAACAUGAGGAUCACCCAUGUGGUGUUGUGAGUAAGGAGAGUGAUCAGAAGGGCAUUUUUUUU [JMF's solution 96] (Eterna round: R96, puzzle: Same State NG 2)
Input ligand: FMN 200 uM
  apparent KD of MS2 coat protein: 0.599 µM
[1]
  apparent KD of MS2 coat protein: 0.452 µM
Input ligand: none
  apparent KD of MS2 coat protein: 0.445 µM

## UUACCGCGGGUAGGAUAUGGUCACACUUCUAAAACAUGAGGAUCACCCAUGUCCGACACAUAAAGCCAGAAGGACCCGCGGCUC [Esbea] (Eterna round: R96, puzzle: Same State NG 2)
Input ligand: FMN 200 uM
  apparent KD of MS2 coat protein: 0.0208 µM
[1]
  apparent KD of MS2 coat protein: 0.0485 µM
Input ligand: none
  apparent KD of MS2 coat protein: 0.0714 µM

## AACAAUUAACAUGAGGAUCACCCAUGUAUUACUUCGUGUUUUUGCUCGUCUUAUGUUAGGUUCGAUAGAGCUUAACA [Improved] (puzzle: Sensor for hsa-mir-208a version 2)
[2]
  apparent KD of MS2 coat protein: 0.0424 µM
[3]
  apparent KD of MS2 coat protein: 0.0126 µM
[4]
  apparent KD of MS2 coat protein: 0.0449 µM

## AUUAAACAUGAGGAUCACCCAUGUCAACAAAGUCGAGGAUAUGGGCAAAUAAAAUAAUAACCAGAAGGCGAAUAAU [salish99_ss1_r3_065] (puzzle: Same State 1)
[2]
  apparent KD of MS2 coat protein: 0.0378 µM
[3]
  apparent KD of MS2 coat protein: 0.353 µM
[4]
  apparent KD of MS2 coat protein: 0.295 µM

## CUGCACCGUGGAGGAUAUGGGCUGAGGCCAGGACAACCCUGGCCAACAUGAGGAUCACCCAUGUCCCAGAAGGCCACAGUGCUA [Zaenmaxe] (Eterna round: R96, puzzle: Same State NG 2)
Input ligand: FMN 200 uM
  apparent KD of MS2 coat protein: 0.0151 µM
[1]
  apparent KD of MS2 coat protein: 0.0867 µM
Input ligand: none
  apparent KD of MS2 coat protein: 0.112 µM

## GGCGUAUAAACAUGAGGAUCACCCAUGUAGCGGAGACGCAAUGAGGAUAUCGAUGGGUUUCCCGUCGAGAAGGCGUGGGUCGCC [JL SSNG3 3.94] (Eterna round: R96, puzzle: Same State NG 3)
Input ligand: FMN 200 uM
  apparent KD of MS2 coat protein: 0.0206 µM
[1]
  apparent KD of MS2 coat protein: 0.0206 µM
Input ligand: none
  apparent KD of MS2 coat protein: 0.029 µM
